Measurements published in article doi:10.1101/2023.04.06.535761 (bioRxiv, 2023).
Changes are numbered by the printed parent chain. Names and notes keep the numbering of the source. Blank lines part the entries; values can stand above or below the binder they belong to.

Legend:
StrepII-GFP-RTCB [1] = molecular target: T1, StrepII-GFP-RTCB (human, UniProt Q9Y3I0 1-505); assay: pull-down
T1 sequence (looked up): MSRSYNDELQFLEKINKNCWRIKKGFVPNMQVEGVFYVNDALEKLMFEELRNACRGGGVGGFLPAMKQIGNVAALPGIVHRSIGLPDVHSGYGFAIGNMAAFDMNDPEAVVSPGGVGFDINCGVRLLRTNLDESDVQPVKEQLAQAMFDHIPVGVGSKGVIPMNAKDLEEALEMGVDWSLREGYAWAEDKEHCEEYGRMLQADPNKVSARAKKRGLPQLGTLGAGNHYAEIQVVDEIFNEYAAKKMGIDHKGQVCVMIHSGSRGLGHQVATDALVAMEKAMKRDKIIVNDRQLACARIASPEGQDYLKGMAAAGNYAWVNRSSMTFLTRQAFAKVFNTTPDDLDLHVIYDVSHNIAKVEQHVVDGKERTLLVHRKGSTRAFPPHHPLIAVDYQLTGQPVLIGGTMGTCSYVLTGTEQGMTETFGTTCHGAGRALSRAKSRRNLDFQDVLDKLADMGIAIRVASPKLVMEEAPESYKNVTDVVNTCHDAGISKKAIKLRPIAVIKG

[2] = molecular target: T2, RTCB (un-guanylylated, apo-RTCB) (human, UniProt Q9Y3I0 1-505); assay: cryo-EM structure
T2 sequence (looked up): T1 sequence (looked up)

StrepII-GFP-RTCB [3] = molecular target: T1, StrepII-GFP-RTCB; assay: pull-down; remark: listed apart in the source

half-life of the complex upon NADH removal (StrepII-GFP-RTCB [1]): ~2 min | stoichiometry N [2]: 1
B1: PYROXD1 (wild type) (enzyme, human, UniProt Q8WU10 1-500, looked up)
chain: MEAARPPPTAGKFVVVGGGIAGVTCAEQLATHFPSEDILLVTASPVIKAVTNFKQISKILEEFDVEEQSSTMLGKRFPNIKVIESGVKQLKSEEHCIVTEDGNQHVYKKLCLCAGAKPKLICEGNPYVLGIRDTDSAQEFQKQLTKAKRIMIIGNGGIALELVYEIEGCEVIWAIKDKAIGNTFFDAGAAEFLTSKLIAEKSEAKIAHKRTRYTTEGRKKEARSKSKADNVGSALGPDWHEGLNLKGTKEFSHKIHLETMCEVKKIYLQDEFRILKKKSFTFPRDHKSVTADTEMWPVYVELTNEKIYGCDFIVSATGVTPNVEPFLHGNSFDLGEDGGLKVDDHMHTSLPDIYAAGDICTTSWQLSPVWQQMRLWTQARQMGWYAAKCMAAASSGDSIDMDFSFELFAHVTKFFNYKVVLLGKYNAQGLGSDHELMLRCTKGREYIKVVMQNGRMMGAVLIGETDLEETFENLILNQMNLSSYGEDLLDPNIDIEDYFD

binding result (StrepII-GFP-RTCB [3]): binds
B2: PYROXD1 D500A (enzyme, human, UniProt Q8WU10 1-500, looked up)
chain: B1 chain with D500A

binding result (StrepII-GFP-RTCB [3]): binds
B3: PYROXD1 Δ500 (domain or fragment, human, UniProt Q8WU10 1-499, looked up)
chain: MEAARPPPTAGKFVVVGGGIAGVTCAEQLATHFPSEDILLVTASPVIKAVTNFKQISKILEEFDVEEQSSTMLGKRFPNIKVIESGVKQLKSEEHCIVTEDGNQHVYKKLCLCAGAKPKLICEGNPYVLGIRDTDSAQEFQKQLTKAKRIMIIGNGGIALELVYEIEGCEVIWAIKDKAIGNTFFDAGAAEFLTSKLIAEKSEAKIAHKRTRYTTEGRKKEARSKSKADNVGSALGPDWHEGLNLKGTKEFSHKIHLETMCEVKKIYLQDEFRILKKKSFTFPRDHKSVTADTEMWPVYVELTNEKIYGCDFIVSATGVTPNVEPFLHGNSFDLGEDGGLKVDDHMHTSLPDIYAAGDICTTSWQLSPVWQQMRLWTQARQMGWYAAKCMAAASSGDSIDMDFSFELFAHVTKFFNYKVVLLGKYNAQGLGSDHELMLRCTKGREYIKVVMQNGRMMGAVLIGETDLEETFENLILNQMNLSSYGEDLLDPNIDIEDYF
